Test results reported in the supplement of paper PMC9233669.
This sample holds only a part of the variants without activity.

Legend:
[1] = tested on: biotinyl-Trp-oxazolone; assay: self-aminoacylation, catalytic enhancement (BWO) (fold over background); higher = more active; k-Seq, kA / k0A0; sequences stand for … in GGGAAUGGAUCCACAUCUACGAAUUC…UUCACUGCAGACUUGACGAAGCUG
Outline: (§1)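 Catalytic enhancement equals the median kA over the uncatalyzed rate, the latter read from the low-activity peak of a bimodal Gaussian fit. Values of kA came from fitting each sequence's fraction reacted to a pseudo-first-order model, with 1000 bootstraps. Reacted RNA was captured with streptavidin and quantified by triplicate qPCR and Illumina sequencing after 90 minutes at room temperature with 2–1250 μM biotinyl-aminoacyl-oxazolone and 0.43 μM mutagenized RNA pools bearing a 21-nt variable region.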

[2] = tested on: biotinyl-Leu-oxazolone; assay: self-aminoacylation, catalytic enhancement (BLO) (fold over background); higher = more active; k-Seq, kA / k0A0; sequences stand for … in GGGAAUGGAUCCACAUCUACGAAUUC…UUCACUGCAGACUUGACGAAGCUG
Outline: as §1

[3] = tested on: biotinyl-Val-oxazolone; assay: self-aminoacylation, catalytic enhancement (BVO) (fold over background); higher = more active; k-Seq, kA / k0A0; sequences stand for … in GGGAAUGGAUCCACAUCUACGAAUUC…UUCACUGCAGACUUGACGAAGCUG
Outline: as §1

[4] = tested on: biotinyl-Phe-oxazolone; assay: self-aminoacylation, catalytic enhancement (BFO) (fold over background); higher = more active; k-Seq, kA / k0A0; sequences stand for … in GGGAAUGGAUCCACAUCUACGAAUUC…UUCACUGCAGACUUGACGAAGCUG
Outline: as §1

[5] = tested on: biotinyl-Ile-oxazolone; assay: self-aminoacylation, catalytic enhancement (BIO) (fold over background); higher = more active; k-Seq, kA / k0A0; sequences stand for … in GGGAAUGGAUCCACAUCUACGAAUUC…UUCACUGCAGACUUGACGAAGCUG
Outline: as §1

[6] = tested on: biotinyl-Met-oxazolone; assay: self-aminoacylation, catalytic enhancement (BMO) (fold over background); higher = more active; k-Seq, kA / k0A0; sequences stand for … in GGGAAUGGAUCCACAUCUACGAAUUC…UUCACUGCAGACUUGACGAAGCUG
Outline: as §1

Sequence	self-aminoacylation [1]	self-aminoacylation [2]	self-aminoacylation [3]	self-aminoacylation [4]	self-aminoacylation [5]	self-aminoacylation [6]
CCACACUUCAAUCAAUCGGCC [Fam1B.1 aminoacylation ribozyme variant]	2.62	2.16	2.11	2.71	–	–
CCAGACUUCGAGCAAUCGGUC [Fam1B.1 aminoacylation ribozyme variant]	–	–	2.09	–	–	–
AAGUUUUCUAACAGUCGCAAG [Fam3.1 aminoacylation ribozyme variant]	–	–	–	3.07	2.04	–
AUACACCUAGGUCAUCGGGCG [Fam2.2 aminoacylation ribozyme variant]	2.86	2.58	2.18	11	–	2.8
CCACAAUUCACGCAAUCGGUC [Fam1B.1 aminoacylation ribozyme variant]	–	–	2.05	–	–	–
AUUCACCUAGGACAUCGGGUA [Fam2.2 aminoacylation ribozyme variant]	2.09	2.63	–	7.17	2.02	2.72
CCACAAUUCAAGCAAUCGGGC [Fam1B.1 aminoacylation ribozyme variant]	2.04	–	–	–	2.22	2.14
AUUACCCUGGUGAGCGAGUGA [Fam2.1 aminoacylation ribozyme variant]	3.97	3.8	–	22.2	2.4	3.94
UUUCACCUAGGUCAUCGGGUC [Fam2.2 aminoacylation ribozyme variant]	–	–	2.09	2.14	–	–
AUUACCCUGGUCCUGGAGUGA [Fam2.1 aminoacylation ribozyme variant]	3.33	2.79	–	10.7	2.07	3.13
AUUCACCAAGGUCAUAGGGUG [Fam2.2 aminoacylation ribozyme variant]	2.2	4.37	–	9.85	–	2.48
AACUUAGCUAAUAGUCGCAAG [Fam3.1 aminoacylation ribozyme variant]	–	3.27	–	2.75	2.2	2.42
CCACACUUCAAGCAAUCGGCC [Fam1B.1 aminoacylation ribozyme variant]	4.72	–	2.17	4.93	–	–
AUUCACCUAUGUCAUGGGGUG [Fam2.2 aminoacylation ribozyme variant]	2.69	3.16	2.07	14.1	–	2.89
AUUCACCUAGGCCAUCGGCUG [Fam2.2 aminoacylation ribozyme variant]	–	2.03	2.59	10.5	–	2.27
AUUAACCUAGAUCAUCGGGUG [Fam2.2 aminoacylation ribozyme variant]	2.54	2.84	–	14.9	–	2.81
CCGCACUUCAAGCAAUCGGUU [Fam1B.1 aminoacylation ribozyme variant]	14.4	2.4	2.45	13.9	–	–
AUUACCGUGCUCAUCGAGUGA [Fam2.1 aminoacylation ribozyme variant]	3.33	2.64	–	2.01	–	2.12
AUUCACCUACGUCAUCAGGUG [Fam2.2 aminoacylation ribozyme variant]	2.08	2.86	–	9.1	–	2.73
AUUACCCUGGUCGUGGAGUGA [Fam2.1 aminoacylation ribozyme variant]	2.5	2.42	–	12.3	–	2.19
CCACUCUUCAAGCAAUCGGCC [Fam1B.1 aminoacylation ribozyme variant]	4.14	2.23	2.16	4.1	–	–
CCGCACUUCAAGCCAUCGGUC [Fam1B.1 aminoacylation ribozyme variant]	2.01	–	2.26	2.13	–	–
AUCACCCUGGUCAUCAAGUGA [Fam2.1 aminoacylation ribozyme variant]	4.8	3.46	2.1	14.2	–	3.75

Sequence	self-aminoacylation [1]	self-aminoacylation [2]	self-aminoacylation [3]	self-aminoacylation [4]	self-aminoacylation [5]	self-aminoacylation [6]
CCACACGUCAAGCAAUCGCUC [Fam1B.1 aminoacylation ribozyme variant]	–	–	2.54	–	–	2.64
AUUCACCUACGUCAUCGGGGG [Fam2.2 aminoacylation ribozyme variant]	–	2.68	2.01	6.05	–	–
CUUCACCUAGGUCAUCGGCUG [Fam2.2 aminoacylation ribozyme variant]	2.25	–	2.27	9.39	–	–
AAGUUGGCUAAAAGUCGCAAG [Fam3.1 aminoacylation ribozyme variant]	–	–	–	3.1	2.01	–
AUUACCCUGGGGAUCGAGUGA [Fam2.1 aminoacylation ribozyme variant]	3.94	3.34	–	14.1	–	2.55
AACUUUGCUAAUAGUCGCAAG [Fam3.1 aminoacylation ribozyme variant]	2.41	2.46	–	3.71	2.22	2.2
AAAUUCGCUAAUAGUCGCAAG [Fam3.1 aminoacylation ribozyme variant]	2.09	2.19	–	2.65	2.89	2.31
AUUCACCUAGGUCAACGGGCG [Fam2.2 aminoacylation ribozyme variant]	–	3.24	–	10.4	2.59	2.85
AUGACCCUGGUCAUCAAGUGA [Fam2.1 aminoacylation ribozyme variant]	2.06	2.28	–	2.74	–	2.4
AUUCACGUAGGUCAUCGGGUC [Fam2.2 aminoacylation ribozyme variant]	–	–	2.28	9.36	–	2.19
AACUUUGCUAAUAGUCGCAAC [Fam3.1 aminoacylation ribozyme variant]	2.59	2.16	–	4.1	2.22	–
AUUACCCUGGUCAUCGAGAAA [Fam2.1 aminoacylation ribozyme variant]	2.58	2.97	–	5.05	–	2.8
CUACUGCAAACAUUCGGUCUG [Fam1A.1 aminoacylation ribozyme variant]	–	–	–	9.39	2.01	–
AUUCAGCUACGUCAUCGGGUG [Fam2.2 aminoacylation ribozyme variant]	3.07	2.71	2.02	10.1	–	–
AACUUUGCUAACAGUCGCAAG [Fam3.1 aminoacylation ribozyme variant]	2.08	3.43	–	2.06	2.17	2.15
AUUCACCUAGGUCAUCGGGAC [Fam2.2 aminoacylation ribozyme variant]	2.55	3	–	2.12	–	2.56
CCACACGUCAAGCAAUCGGUU [Fam1B.1 aminoacylation ribozyme variant]	–	–	2.28	–	–	–
AUUCACCUAGGUAAUCUGGUG [Fam2.2 aminoacylation ribozyme variant]	3.62	4.66	–	16.9	–	3.3
CAACUUCAAACAAUCGGUCGG [Fam1A.1 aminoacylation ribozyme variant]	32.4	2.79	–	87.2	–	2.1
AAGUUUGCUAAUAUUCGCGAG [Fam3.1 aminoacylation ribozyme variant]	3.31	–	–	16.5	2.04	2.02
AAGUUUCCUAAUAGUCGCAGG [Fam3.1 aminoacylation ribozyme variant]	–	2.06	–	11.8	2.09	2.16
AUUCAACUAGGUAAUCGGGUG [Fam2.2 aminoacylation ribozyme variant]	2.81	3.41	–	19	–	2.72
